# In patent US20020103123A1, “Methods of modifying feeding behavior, compounds useful in such methods, and DNA encoding a hypothalamic atypical neuropeptide Y/peptide YY receptor (Y5)” (Synaptic Pharmaceutical Corporation, published 2002):
# Where two headings read alike, the source gives them in different places. Ends that are not written are not given here.
# T1: rat hypothalamic Y5 receptor (rat)
# T1 chain: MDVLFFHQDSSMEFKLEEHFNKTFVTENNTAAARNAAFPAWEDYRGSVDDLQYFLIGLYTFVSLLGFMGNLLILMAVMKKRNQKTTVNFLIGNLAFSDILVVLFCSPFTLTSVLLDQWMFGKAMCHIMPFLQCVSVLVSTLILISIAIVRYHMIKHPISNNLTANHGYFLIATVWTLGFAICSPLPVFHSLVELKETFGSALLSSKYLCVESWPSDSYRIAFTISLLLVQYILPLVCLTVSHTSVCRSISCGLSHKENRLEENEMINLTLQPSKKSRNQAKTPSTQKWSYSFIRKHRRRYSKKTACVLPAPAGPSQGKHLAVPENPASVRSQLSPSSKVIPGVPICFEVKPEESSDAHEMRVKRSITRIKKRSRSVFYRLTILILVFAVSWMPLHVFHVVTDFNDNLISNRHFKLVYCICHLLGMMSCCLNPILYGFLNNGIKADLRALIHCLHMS
# T2: rat Y2 receptor (rat, UniProt Q9ERC0)
# T2 sequence: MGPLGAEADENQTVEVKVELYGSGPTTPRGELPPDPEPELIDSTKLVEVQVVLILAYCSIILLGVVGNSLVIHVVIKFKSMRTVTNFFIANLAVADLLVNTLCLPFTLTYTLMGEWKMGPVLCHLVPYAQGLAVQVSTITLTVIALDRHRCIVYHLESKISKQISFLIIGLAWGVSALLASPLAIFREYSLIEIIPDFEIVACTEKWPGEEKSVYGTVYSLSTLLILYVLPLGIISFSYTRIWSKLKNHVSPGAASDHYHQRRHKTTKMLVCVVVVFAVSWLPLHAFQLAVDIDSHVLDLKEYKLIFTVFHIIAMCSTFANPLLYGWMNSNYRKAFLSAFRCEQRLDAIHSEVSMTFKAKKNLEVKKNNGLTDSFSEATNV
# T3: human hippocampal Y5 receptor (human)
# T3 chain: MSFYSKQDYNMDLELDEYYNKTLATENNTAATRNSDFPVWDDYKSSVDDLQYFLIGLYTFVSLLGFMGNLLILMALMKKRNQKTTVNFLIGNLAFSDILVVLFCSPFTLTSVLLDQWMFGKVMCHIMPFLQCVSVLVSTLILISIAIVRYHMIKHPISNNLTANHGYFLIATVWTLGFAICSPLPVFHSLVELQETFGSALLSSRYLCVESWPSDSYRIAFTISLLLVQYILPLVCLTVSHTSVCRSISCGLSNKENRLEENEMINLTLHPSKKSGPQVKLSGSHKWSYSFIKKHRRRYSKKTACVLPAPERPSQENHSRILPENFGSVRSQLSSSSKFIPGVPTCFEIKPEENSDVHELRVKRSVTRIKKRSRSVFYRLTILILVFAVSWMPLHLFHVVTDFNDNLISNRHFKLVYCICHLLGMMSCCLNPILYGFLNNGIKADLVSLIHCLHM
# T4: human Y2 receptor (human, UniProt P49146)
# T4 sequence: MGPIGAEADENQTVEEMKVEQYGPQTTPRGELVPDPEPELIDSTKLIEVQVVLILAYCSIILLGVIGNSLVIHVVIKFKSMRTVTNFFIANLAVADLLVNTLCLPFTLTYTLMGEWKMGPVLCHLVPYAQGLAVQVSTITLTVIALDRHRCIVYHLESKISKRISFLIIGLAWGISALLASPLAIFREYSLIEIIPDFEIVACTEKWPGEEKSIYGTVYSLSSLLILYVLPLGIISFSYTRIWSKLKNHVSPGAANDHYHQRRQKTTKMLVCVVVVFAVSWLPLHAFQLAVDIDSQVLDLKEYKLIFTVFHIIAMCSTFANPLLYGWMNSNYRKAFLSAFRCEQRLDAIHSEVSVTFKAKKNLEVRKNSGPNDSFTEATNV
# What was measured:
# [1] = molecular target: T1, rat hypothalamic Y5 receptor; assay: 125I-PYY displacement, COS-7 membranes
# rat Y1 receptor = rat Y1 receptor (rat, UniProt P21555); assay: 125I-PYY displacement, COS-7 membranes
# rat Y2 receptor = molecular target: T2, rat Y2 receptor; assay: 125I-PYY displacement, COS-7 membranes
# [2] = molecular target: T1, rat hypothalamic Y5 receptor; assay: 125I-PYY displacement, COS-7 membranes
# rat Y4 receptor = rat Y4 receptor (rat, UniProt Q63447); assay: 125I-PYY displacement, COS-7 membranes
# [3] = molecular target: T1, rat hypothalamic Y5 receptor; assay: 125I-PYY displacement, COS-7 membranes
# [4] = molecular target: T3, human hippocampal Y5 receptor; assay: 125I-PYY displacement, LM(tk-) membranes
# [5] = molecular target: T3, human hippocampal Y5 receptor; assay: 125I-PYY displacement, COS-7 membranes
# [6] = molecular target: T3, human hippocampal Y5 receptor; assay: 125I-PYY3-36 displacement, LM(tk-) membranes
# human Y1 receptor [7] = molecular target: T5, human Y1 receptor (human, UniProt P25929); assay: 125I-PYY displacement, COS-7 membranes
# human Y2 receptor [8] = molecular target: T4, human Y2 receptor; assay: 125I-PYY displacement, COS-7 membranes
# human Y4 receptor [9] = molecular target: T6, human Y4 receptor (human, UniProt P50391); assay: 125I-PYY displacement, COS-7 membranes
# [10] = molecular target: T3, human hippocampal Y5 receptor; assay: 125I-PYY displacement, COS-7 membranes
# human Y1 receptor [11] = molecular target: T5, human Y1 receptor; assay: 125I-PYY displacement, COS-7 membranes; remark: listed apart in the source
# human Y2 receptor [12] = molecular target: T4, human Y2 receptor; assay: 125I-PYY displacement, COS-7 membranes; remark: listed apart in the source
# human Y4 receptor [13] = molecular target: T6, human Y4 receptor; assay: 125I-PYY displacement, COS-7 membranes; remark: listed apart in the source
# human Y1 receptor [14] = molecular target: T5, human Y1 receptor; assay: 125I-PYY displacement, COS-7 membranes; tested only up to 100 nM
# human Y2 receptor [15] = molecular target: T4, human Y2 receptor; assay: as above
# human Y1 receptor [16] = molecular target: T5, human Y1 receptor; assay: as above; remark: listed apart in the source
# human Y2 receptor [17] = molecular target: T4, human Y2 receptor; assay: as above; remark: listed apart in the source
Ki [1] [nM],Ki (rat Y1 receptor) [nM],Ki (rat Y2 receptor) [nM],Ki [3] [nM],Ki [5] [nM],Binder,also measured
8.4,120,> 1000,8.4,1.6,APLEPEYPGDNATPEQMAQYAAELRRYINMLTRPRY [bovine PP],Ki [4]: 7.9 nM; Ki [6]: 5 nM
84,> 1000,> 650,290,720,TPEQMAQYAADLRRYINMLTRPRY [human PP13-36],Ki (human Y4 receptor [9]): 39 nM; Ki [10]: 720 nM; Ki (human Y4 receptor [13]): 39 nM; Ki (human Y1 receptor [14]): > 100 nM; Ki (human Y2 receptor [15]): > 100 nM; Ki (human Y1 receptor [16]): > 100 nM; Ki (human Y2 receptor [17]): > 100 nM
> 10000,–,–,–,–,PLEPVY-OH [human PP31-36 free acid],Ki (rat Y4 receptor): > 100 nM
–,–,–,–,2.1,PLEPVYPGDNATPEQMAQYAADLRRYINMLTRPRY [human PP2-36],Ki [10]: 2.1 nM
> 100,–,–,–,–,YYSALRHYINLITRQRY (ends and bridges not checked) [porcine NPY20-36],–
> 1000,> 10000,> 10000,> 10000,> 10000,PLEPVY [human PP31-36],Ki (rat Y4 receptor): 26 nM; Ki [6]: 41000 nM
5500,45000,–,–,–,FLRF-NH2 [FLRF-amide],–

# The next lines start with the binder.
Binder,Ki [1] [nM],Ki (rat Y1 receptor) [nM],Ki (rat Y2 receptor) [nM],Ki [3] [nM],Ki [5] [nM],also measured
YPSKPDNPGEDAPAEDMARYYSAL-NH2 [human NPY1-24 amide],> 1000,–,–,–,–,–
PAEDLARYYSALRHYINLITRQRY (ends and bridges not checked) [porcine NPY13-36],–,190,31,–,–,–
APLEPVYPGDNATPEQMAQYAADLRRYINMLTRPRY [human PP],5,–,> 1000,5,–,Ki [2]: 5 nM; Ki (rat Y4 receptor): 0.04 nM; Ki [4]: 3 nM
SPEELNRYYASLRHYLNLVTRQRY [human PYY13-36],–,130,–,–,–,–
APLEPMYPGDYATHEQRAQYETQLRRYINTLTRPRY [rat PP],230,–,> 1000,230,630,Ki [2]: 180 nM; Ki (human Y1 receptor [7]): 450 nM; Ki (human Y2 receptor [8]): > 1000 nM; Ki (human Y4 receptor [9]): 0.16 nM; Ki [10]: 630 nM; Ki (human Y1 receptor [11]): 450 nM; Ki (human Y2 receptor [12]): > 1000 nM; Ki (human Y4 receptor [13]): 0.16 nM; Ki [6]: 130 nM
DLARYYSALRHYINLITRQRY (ends and bridges not checked) [porcine NPY16-36],260,140,35,260,300,Ki (rat Y4 receptor): 200 nM; Ki [6]: 180 nM
ARYYSALRHYINLITRQRY (ends and bridges not checked) [porcine NPY18-36],> 1000,–,–,> 1000,> 470,–
SALRHYINLITRQRY (ends and bridges not checked) [porcine NPY22-36],> 1000,> 1000,54,> 1000,> 1000,–
HYINLITRQRY (ends and bridges not checked) [porcine NPY26-36],–,> 1000,–,–,–,Ki (human Y1 receptor [7]): > 1000 nM; Ki (human Y2 receptor [8]): 380 nM; Ki (human Y1 receptor [11]): > 1000 nM; Ki (human Y2 receptor [12]): 380 nM
